Reference: US20220356229A1
Positions count from the first letter of the chain named.

B1: antibody 896 (antibody, V domains shown)
VH: EVQLVESGGGVVQPGGSLRLSCAASGFTFDDYAMHWVRQVPGKGLEWVSLISGDGGSTYYADSVKGRFTISRDNSKNSLYVQMNSLRTEDTALYYCVKDRGGSGWDLNHYYYGMDVWGQGTTVTVSS
VL: DIQLTQSPSFLSASVGDRVTVTCRASQGISSYLAWYQQKPGKAPKLLIYAAYTLQSGVPSRFSGSGSETEFTLTISSLQPEDFATYYCQQVKSYPLTFGGGTKVEIKR
B2: antibody 1538 (antibody, V domains shown)
VH: EVQLLESGGGLVQPGGSLRLSCAASGFTFSSYAMSWVRQAPGKGLEWVSGISDSGGSTYYADYVKGRFTISRDNSKDTLYLQMNSLRAEDTAVYYCAKDRGNEYALTHYYYYAMDVWGQGTTVTVSS
VL: DIQMTQSPSSLSASVGDRVTITCRASQSISSYLNWYQQKPGKAPKLLIYAAYSLQSGVPSRFSGGGSGTDFTLTISSLQPEDFATYFCQQSYSTPITFGQGTRLEIKR
B3: antibody 851 (antibody, V domains shown)
VH: QITLKESGPTLVKPTQTLTLTCTFSGFSLSTNGVGMGWIRQPPGKALEWLALIYWDDDQFYSPSLKSRLTITRDTSKNQVVLTMTNMDPVDTATYYCAQAFYESFGFYSWGQGTLVTVSS
VL: NFMLTQPHSVSESPGKTVIISCTRSIGSIASNYVQWYQQRPGSAPTIVVFEDNERPSGVPDRFSGSIDRSSNSASLTISGLKTEDEADYYCQSYDGSSELVFGGGTKLTVLG
B4: antibody 923 (antibody, V domains shown)
VH: EVQLVESGGGVVRPGGSLRLSCAASGFIFDDYDMTWVRQAPGKGLEWVSGISWNGGNTGYADSVKGRFTISRDNAKNSLYLQMNSLRAEDTALYHCAVIMSPIPRYSGYDWAGGAFDIWGQGTMVTVSS
VL: SSELTQDPAVSVALGQTVRITCQGDSLRSYYASWYQQKPGQVPILVIYDKNNRPSGIPDRFSGSSSGNTASLTITGAQAEDEADYYCNSRDSSGNAVVFGGGTKLTVLG
B5: antibody 1444 (antibody, V domains shown)
VH: QVQLVQSGAEVKKPGASVKVSCKASGYTFTAYYMHWVRQAPGQGLEWMGWINPNSDDTNYAQKFQGRVTMTRDTSISTAYMELSRLRSDDTAVYYCAREEGVFTIGDRYFDLWGRGTLVSVSS
VL: QTVVTQEPSFSVSPGGTVTLTCGLSSGSVSTSYYPSWYQQTPGQAPRTLIYNTNTRSSGVPDRFSGSILGNKAALTITGAQADDESDYYCVLYMGSGIWVFGGGTKLTVLG
B6: antibody 1037 (antibody, V domains shown)
VH: QITLKESGPTLVKPTQTLTLTCTFSGFSLSTSGVGVGWIRQPPGKALEWLALIYWDDDKRYSPSLKSRLTITKDTSKNQVVLTMTNMDPVDTATYYCAHHTITRINDYWGQGTLVTVSS
VL: QSALTQPASVSGSPGQSITISCTATSSDVGAYNYVSWYQQHPGKAPKLMIYDVSKRPSGVSNRFSGSKSGNTASLTISGLQAEDEADYYCSSYTSSSTVFGGGTKLTVLG
B7: antibody 1404 (antibody, V domains shown)
VH: B6 VH with T31I, I39L, T72S, T83K, M87I, T101S, T103S, R104T, N106F, Y108H
VL: B6 VL with A31D, Y51F, D52E, K55D, V60I, S95T, T98A

What follows are binders tested against SARS-CoV-2 full length Spike protein, lineage B.1.1.7 (SARS-CoV-2).
In the case of B1, the bead assay binding signal is reported as 692. B2 was tested, and the bead assay binding signal was 706. B3 was tested, and the bead assay binding signal was 545. B4 showed a bead assay binding signal of 604. B5 was tested, and the bead assay binding signal was 626. In the case of B6, the bead assay binding signal is reported as 749. With B7 the bead assay binding signal was 719.

These binders were tested against SARS-CoV-2 full length Spike protein, lineage B.1.351 (SARS-CoV-2).
Binder B1 has a bead assay binding signal of 946. B2 was tested, and the bead assay binding signal was 928. Binder B3 has a bead assay binding signal of 681. With B4 the bead assay binding signal was 435. B5 was tested, and the bead assay binding signal was 802. Binder B6 has a bead assay binding signal of 985. B7 showed a bead assay binding signal of 941.
